Assay results as given in patent EP4682169A1.

Legend:
[1] = target: Human Claudin-18.2 protein (human) (UniProt P56856); assay: SPR (Biacore 8K), antibody captured on Protein A, Claudin-18.2 protein as analyte
[2] = target: human Claudin18.2 expressed on cells (human) (UniProt P56856); assay: flow cytometry on 293FT CLDN18.2-Luc cells, APC anti-mouse IgG Fc

Kd [1]: 5.65 nM
koff [1]: 0.000753 s⁻¹
kon [1]: 133000 M⁻¹ s⁻¹
EC50 [2]: 0.07 nM
Substance: IMAB-mIgG2aFc (antibody)
